This note sets out measurements from article doi:10.1101/2023.08.30.555639.

The target of assay [1] is disulfide-linked BTN2A1 ectodomain homodimer (Cys247, leucine zippers) (human) (UniProt Q7KYR7). Put plainly: SPR.
Assay [2] deals with soluble BTN3A1 ectodomain (IgV–IgC), homodimeric (human) (UniProt O00481). Put plainly: SPR.
The target in assay [3] is soluble BTN2A1–BTN3A1–zipper ectodomain complex (wild type) (human) (UniProt Q7KYR7). Put plainly: SPR.
The target of assay [4] is BTN3A1 Leu96-Ala on transfected NIH-3T3 cells (human) (UniProt O00481). Briefly: flow cytometry on cells.
Assay [5] deals with BTN3A1 Phe26-Ala on transfected NIH-3T3 cells (human) (UniProt O00481). Put plainly: flow cytometry on cells.
In assay [6] the target is BTN3A1 Ser42-Ala on transfected NIH-3T3 cells (human) (UniProt O00481). Put plainly: flow cytometry on cells.
The target in assay [7] is BTN3A1 Lys37-Ala on transfected NIH-3T3 cells (human) (UniProt O00481). Put plainly: flow cytometry on cells.
Assay [8] addresses soluble BTN2A1^WT–BTN3A1^Glu106-Ala zipper ectodomain complex (human) (UniProt Q7KYR7). Briefly: SPR.
Assay [9] deals with soluble BTN2A1–BTN3A1–zipper ectodomain complex (wild type) (human) (UniProt Q7KYR7). Briefly: SPR. The source holds these as a separate data set.

Like-named read-outs stand apart in the source and are kept apart here.

For the substance “monomeric BTN3A1 IgV domain (domain or fragment)”, in assay [1], the Kd came to 1100 µM.
In turn, “soluble BTN2A1 ectodomain lacking Cys247 (monomeric) (from UniProt Q7KYR7 29-248) (domain or fragment)” came in with a Kd in [2] of 1800 µM.
In assay [3], soluble G115 Vγ9Vδ2^+ TCR His85γ-Ala returned a Kd of 740 µM.
Take soluble G115 Vγ9Vδ2^+ TCR Lys53δ-Ala: the Kd in assay [2] was > 1200 µM; in assay [3] it was 46 µM.
As to “soluble Vγ9Vδ2^+ γδTCR clone G115, wild type”, the Kd is > 4000 µM in [2]; 99 µM in [1]; 79 µM in [3]; 37 µM in [8]; 85 µM in assay [9]. The reduction of G115 tetramer staining against wild-type BTN3A1 in [4], in assay [5], in [6] and in [7] was > 90% each time.
